Reference: patent US20240352145A1, “EFFICACY OF ANTI-TROP-2-SN-38 ANTIBODY DRUG CONJUGATES FOR THERAPY OF TUMORS RELAPSED/REFRACTORY TO CHECKPOINT INHIBITORS” (Immunomedics, Inc., priority 2016, published 2024)
Where two headings read alike, the source gives them in different places.

Columns and labels:
BxPC-3 = test: Cytotoxicity (MTS), Example 6, BxPC-3; format: cell-based, human; conditions: BxPC-3, 96 h
Description: One day prior to adding the ADCs, cells were harvested from tissue culture and plated into 96-well plates. […] Plates were incubated at 37° C. for 96 h. […] Growth inhibition was measured as a percent of growth relative to untreated cells using Microsoft Excel and Prism software (non-linear regression to generate sigmoidal dose response curves which yield IC50-values.

[1] = tested on: human gastric carcinoma xenografts (NCI-N87); test: NCI-N87 xenograft, comparison of anti-Trop-2 ADCs; format: in vivo, mouse
Description: NCI-N87 cells were expanded in tissue culture and harvested with trypsin/EDTA. Female athymic nude mice were injected s.c. with 200 μL of NCI-N87 cell suspension mixed 1:1 with matrigel such that 1×10^7 cells was administered to each mouse. Once tumors reached approximately 0.25 cm^3 in size (6 days later), the animals were divided up into seven different treatment groups of nine mice each. For the SN-38 ADCs, mice received 500 μg i.v. injections once a week for two weeks. Control mice received the non-tumor targeting hA20-SN-38 ADC at the same dose/schedule. A final group of mice received only saline and served as the untreated control. Tumors were measured and mice weighed twice a week. Mice were euthanized for disease progression if their tumor volumes exceeded 1.0 cm^3 in size.

small-cell lung cancer = format: in vivo, human
Excerpt: This is a person with a diagnosis of small-cell lung cancer, involving their left lung, mediastinal lymph nodes, and MRI evidence of a metastasis to the left parietal brain lobe. Prior chemotherapy includes carboplatin, etoposide, and topotecan, but with no response noted. Radiation therapy also fails to control their disease.

[2] = tested on: human pancreatic adenocarcinoma xenograft model (BxPC-3); test: Clinically-relevant dosing schemes, BxPC-3 xenograft; format: in vivo, mouse; conditions: for TTP: untreated 5.0±2.3
Excerpt: In Vivo Therapeutic Studies—NCr female athymic nude (nu/nu) mice, 4-8 weeks old, were purchased from Taconic Farms (Germantown, NY). NCI-N87 gastric tumor xenografts were established by harvesting cells from tissue culture and making a final cell suspension 1:1 in matrigel (BD Bioscience; San Jose, CA), with each mouse receiving a total of 1×10^7 cells s.c. in the right flank. For BxPC-3. xenografts of 1 g were harvested, and a tumor suspension made in HBSS to a concentration of 40% tumor w/v. This suspension was mixed 1:1 with matrigel for a final tumor suspension of 20% w/v. […] For IHC, tumors were allowed to grow to approximately 0.5 cm^3 before the mice were euthanized and the tumors removed, formalin-fixed and paraffin-embedded. For therapy studies, mice were randomized into treatment groups and therapy begun when tumor volumes were approximately 0.25 cm^3.
Mice were euthanized and deemed to have succumbed to disease once tumors grew to greater than 1.0 cm^3 in size. […] Time to progression (TTP) was determined as time post-therapy initiation when the tumor grew more than 20% in size from its nadir.
A human dose of 8 mg/kg translates to a murine dose of 98.4 mg/kg, or approximately 2 mg to a 20 g mouse.

[3] = tested on: diverse metastatic cancers
Description: To optimize cumulative treatment with minimal delays, phase II is focusing on 8 and 10 mg/kg (n=30 and 14, respectively).
Two ELISA methods were used to measure the clearance of the IgG (capture with anti-hRS7 idiotype antibody) and the intact conjugate (capture with anti-SN-38 IgG/probe with anti-hRS7 idiotype antibody). SN-38 was measured by HPLC.

MDA-MB-231 = conditions: mouse, in vivo
[4] = esophageal cancer, 4 assessable patients

IMMU-132 was tested, and the IC50 (BxPC-3) was 2.6 nM, the “tumor growth (AUC) vs saline and hA20-SN-38” value ([1]; 500 μg i.v. once a week for two weeks) was “significantly inhibited tumor growth” and the “mean time to tumor progression (TTP)” value ([1]; mouse, in vivo) was 18.4 ± 3.3 days. The “mice with stable disease” value ([1]; nine mice per group) was 7 of 9, the “shrinkage of target left lung mass” value (small-cell lung cancer; 18 mg/kg once every three weeks, after fifth infusion) was 13% and the “reduction of brain metastasis” value (small-cell lung cancer; after another 3 months) was 21%. For the same substance, the “reduction of left lung mass” value (small-cell lung cancer; after another 3 months) was 25%, the “reduction of brain metastasis” value (small-cell lung cancer; after fifth infusion) was 10% and the “adverse events after second dose” value (small-cell lung cancer; in vivo) was “hypotension and a Grade 2 neutropenia”. For the same substance, the “anti-tumor effect vs untreated” value ([2]; all three dosing schemes of fractionated 2 mg) was “significant anti-tumor effect”, the TTP ([2]; eight doses of 0.25 mg) was 31.7 ± 14.5 days and the TTP ([2]; two doses of 1 mg (days 1 and 15)) was 22.4 ± 10.1 days. The dose-limiting toxicity ([3]; 8, then 12 and 18 mg/kg, days 1 and 8 of 21-day cycles) was “dose-limiting neutropenia”, the “median TTP in PDC patients” value ([3]; 8 wks for preceding last therapy) was 11.9 wks and the “stable disease, PDC” value ([3]; 13 CT-assessable PDC patients) was 62%. For the same substance, the “patients with long-term stable disease” value ([3]; 24 assessable patients, Phase I study) was “Over 80%”, the “partial response (PR)” value ([3]; 48 assessable patients (excluding PDC), RECIST/CT) was 15% and the maximum reduction ([3]; CRC case, after 10 months of treatment) was 65%. The CEA after treatment ([3]; CRC case, from 781 ng/mL) was 26.5 ng/mL, the “PD, number of patients” value ([3]; CRC, 18 assessable patients) was 6 and the “PR, number of patients” value ([3]; CRC, 18 assessable patients) was 1. The “total response [PR+SD]” value ([3]; CRC, 18 assessable patients) was 67%, the “PD, number of patients” value ([3]; NSCLC, 5 assessable patients) was 1 and the “PR, number of patients” value ([3]; NSCLC, 5 assessable patients) was 1. For the same substance, the “total response [PR+SD]” value ([3]; NSCLC, 5 assessable patients) was 80%, the “PD, number of patients” value ([3]; SCLC, 4 assessable patients) was 2 and the “PR, number of patients” value ([3]; SCLC, 4 assessable patients) was 2. The “total response [PR+SD]” value ([3]; SCLC, 4 assessable patients) was 50%, the “PD, number of patients” value ([3]; TNBC, 8 assessable patients) was 2 and the “PR, number of patients” value ([3]; TNBC, 8 assessable patients) was 2. The “total response [PR+SD]” value ([3]; TNBC, 8 assessable patients) was 75%, the “PD, number of patients” value ([3]; all 48 assessable patients) was 14 and the “PR, number of patients” value ([3]; all 48 assessable patients) was 7. The “total response [PR+SD]” value ([3]; all 48 assessable patients) was 79%, the “total response [PR+SD]” value ([3]; all 48 assessable patients, listed as hRS7-SN-38) was 71% and the “PD, number of patients” value [3, 4] was 1. For the same substance, the “PR, number of patients” value [3, 4] was 1, the “total response [PR+SD]” value [3, 4] was 75% and the “time to clearance of conjugate from serum” value ([3]; human, in vivo) was no more than 3 days. For the same substance, the “Abdominal pain, Grade 3, number of patients” value ([3]; in vivo) was 0, the “Abdominal pain, Grade 4, number of patients” value ([3]; in vivo) was 0 and the “Abdominal pain, TOTAL” value ([3]; in vivo) was 11%. The “Alopecia, TOTAL” value ([3]; in vivo) was 40%, the “Anemia, Grade 3” value ([3]; in vivo) was “(4%)” and the “Anemia, Grade 3, number of patients” value ([3]; in vivo) was 2. For the same substance, the “Anemia, Grade 4, number of patients” value ([3]; in vivo) was 0, the “Anemia, TOTAL” value ([3]; in vivo) was 13% and the “Deep vein thrombosis, Grade 3” value ([3]; in vivo) was “(2%)”. For the same substance, the “Deep vein thrombosis, Grade 3, number of patients” value ([3]; in vivo) was 1, the “Deep vein thrombosis, Grade 4, number of patients” value ([3]; in vivo) was 0 and the “Deep vein thrombosis, TOTAL” value ([3]; in vivo) was 2%. For the same substance, the “Diarrhea, Grade 3” value ([3]; in vivo) was “(9%)”, the “Diarrhea, Grade 3, number of patients” value ([3]; in vivo) was 4 and the “Diarrhea, Grade 4, number of patients” value ([3]; in vivo) was 0. The “Diarrhea, TOTAL” value ([3]; in vivo) was 47%, the “Dysgeusia, Grade 3, number of patients” value ([3]; in vivo) was 0 and the “Dysgeusia, Grade 4, number of patients” value ([3]; in vivo) was 0. The “Dysgeusia, TOTAL” value ([3]; in vivo) was 15%, the “Fatigue, Grade 3” value ([3]; in vivo) was “(9%)” and the “Fatigue, Grade 3, number of patients” value ([3]; in vivo) was 4. For the same substance, the “Fatigue, Grade 4, number of patients” value ([3]; in vivo) was 0, the “Fatigue, TOTAL” value ([3]; in vivo) was 55% and the “Hypokalemia, Grade 3” value ([3]; in vivo) was “(2%)”. The “Hypokalemia, Grade 3, number of patients” value ([3]; in vivo) was 1, the “Hypokalemia, Grade 4, number of patients” value ([3]; in vivo) was 0 and the “Hypokalemia, TOTAL” value ([3]; in vivo) was 11%. The “Nausea, Grade 3, number of patients” value ([3]; in vivo) was 0, the “Nausea, Grade 4, number of patients” value ([3]; in vivo) was 0 and the “Nausea, TOTAL” value ([3]; in vivo) was 53%. The “Neutropenia, Grade 3” value ([3]; in vivo) was “(24%)”, the “Neutropenia, Grade 3, number of patients” value ([3]; in vivo) was 11 and the “Neutropenia, Grade 4, number of patients (%)” value ([3]; in vivo) was 2 (4%). For the same substance, the “Neutropenia, TOTAL” value ([3]; in vivo) was 43%, the “Pyrexia, Grade 3, number of patients” value ([3]; in vivo) was 0 and the “Pyrexia, Grade 4, number of patients” value ([3]; in vivo) was 0. For the same substance, the “Pyrexia, TOTAL” value ([3]; in vivo) was 13%, the “SN-38 in the serum bound to the IgG” value ([3]; in vivo) was greater than 95% and the “Vomiting, Grade 3” value ([3]; in vivo) was “(2%)”. The “Vomiting, Grade 3, number of patients” value ([3]; in vivo) was 1, the “Vomiting, Grade 4, number of patients” value ([3]; in vivo) was 0 and the “Vomiting, TOTAL” value ([3]; in vivo) was 32%. For the same substance, the “WBC Decrease, Grade 3” value ([3]; in vivo) was “(2%)”, the “WBC Decrease, Grade 3, number of patients” value ([3]; in vivo) was 1 and the “WBC Decrease, Grade 4, number of patients” value ([3]; in vivo) was 0. The “WBC Decrease, TOTAL” value ([3]; in vivo) was 6%, the “anti-hRS7 or anti-SN-38 antibodies” value ([3]; in vivo) was “No anti-hRS7 or anti-SN-38 antibodies were detected” and the “anti-hRS7 or anti-SN-38 antibody response” value ([3]; in vivo) was “no anti-hRS7 or anti-SN-38 antibody response has been detected”. For the same substance, the “clearance of intact conjugate vs IgG” value ([3]; in vivo) was “cleared more quickly than the IgG”, the “diarrhea ≥G3” value ([3]; in vivo) was 9% and the “fatigue ≥G3” value ([3]; in vivo) was 9%. For the same substance, the “incidence of Grade 3 or higher, all other adverse events” value ([3]; in vivo) was “less than 10%”, the “median time to progression (TTP), PDC” value ([3]; in vivo) was 12.7 wks and the “nausea ≥G3” value ([3]; in vivo) was 0%. For the same substance, the “neutropenia Grade 4” value ([3]; in vivo) was 4%, the “neutropenia ≥Grade 3” value ([3]; in vivo) was 28% and the “vomiting ≥G3” value ([3]; in vivo) was 2%. The “reduction in target lesions, first CT” value ([3]; person, CRC, 8 mg/kg) was 37%, the “primary target lesion size at first CT” value ([3]; person, NSCLC, 5.6 cm at start, after 6th dose) was 3.2 cm and the “reduction in target lesions” value ([3]; person, SCLC, 12 mg/kg reduced to 6.8 mg/kg, after two months) was 38%. The TTP ([3]; remaining 48 patients) was no less than 12.6 wks and the specific therapeutic effects (MDA-MB-231) was “specific therapeutic effects with IMMU-132 were not achieved”.
